The target of data set [1] is T1, PPR2.0 t1 (synthetic).
T1 chain: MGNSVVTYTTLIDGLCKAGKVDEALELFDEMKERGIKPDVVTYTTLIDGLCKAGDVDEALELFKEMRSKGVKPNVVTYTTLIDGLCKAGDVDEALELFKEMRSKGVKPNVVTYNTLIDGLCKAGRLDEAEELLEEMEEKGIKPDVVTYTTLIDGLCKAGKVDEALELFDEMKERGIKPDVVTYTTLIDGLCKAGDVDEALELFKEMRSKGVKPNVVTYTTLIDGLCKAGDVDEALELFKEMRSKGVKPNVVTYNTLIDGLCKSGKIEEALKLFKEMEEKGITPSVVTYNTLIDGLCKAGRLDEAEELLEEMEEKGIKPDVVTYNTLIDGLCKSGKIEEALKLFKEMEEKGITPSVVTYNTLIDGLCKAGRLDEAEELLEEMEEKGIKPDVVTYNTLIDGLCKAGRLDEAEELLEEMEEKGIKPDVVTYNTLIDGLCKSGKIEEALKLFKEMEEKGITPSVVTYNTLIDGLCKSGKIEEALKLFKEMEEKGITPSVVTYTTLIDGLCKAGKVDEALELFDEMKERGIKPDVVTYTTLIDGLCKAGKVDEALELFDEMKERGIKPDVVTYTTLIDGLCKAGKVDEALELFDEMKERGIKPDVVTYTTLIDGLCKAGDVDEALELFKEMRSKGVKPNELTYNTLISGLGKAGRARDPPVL
The experiment in a line: 20 mM Tris-HCl pH 8.0, 150 mM NaCl, 0.5% NP-40, 1 mM DTT. Particulars: tags: N-terminal NanoLuc, C-terminal His6, kept; label: biotin.

Data set [2] concerns the target T1, PPR2.0 t1. The experiment in a line: EMSA; 20 mM Tris-HCl pH 8.0, 150 mM NaCl, 0.5% NP-40, 1 mM DTT, 1 mM EDTA; 20 nM RNA. The following applies: tags: N-terminal SBP, C-terminal His6, kept; label: biotin. In general terms: A gel shift assay detects complexes by their altered migration in electrophoresis.
Another data set has as its target T2, PPR2.0 t24 (synthetic).
T2 chain: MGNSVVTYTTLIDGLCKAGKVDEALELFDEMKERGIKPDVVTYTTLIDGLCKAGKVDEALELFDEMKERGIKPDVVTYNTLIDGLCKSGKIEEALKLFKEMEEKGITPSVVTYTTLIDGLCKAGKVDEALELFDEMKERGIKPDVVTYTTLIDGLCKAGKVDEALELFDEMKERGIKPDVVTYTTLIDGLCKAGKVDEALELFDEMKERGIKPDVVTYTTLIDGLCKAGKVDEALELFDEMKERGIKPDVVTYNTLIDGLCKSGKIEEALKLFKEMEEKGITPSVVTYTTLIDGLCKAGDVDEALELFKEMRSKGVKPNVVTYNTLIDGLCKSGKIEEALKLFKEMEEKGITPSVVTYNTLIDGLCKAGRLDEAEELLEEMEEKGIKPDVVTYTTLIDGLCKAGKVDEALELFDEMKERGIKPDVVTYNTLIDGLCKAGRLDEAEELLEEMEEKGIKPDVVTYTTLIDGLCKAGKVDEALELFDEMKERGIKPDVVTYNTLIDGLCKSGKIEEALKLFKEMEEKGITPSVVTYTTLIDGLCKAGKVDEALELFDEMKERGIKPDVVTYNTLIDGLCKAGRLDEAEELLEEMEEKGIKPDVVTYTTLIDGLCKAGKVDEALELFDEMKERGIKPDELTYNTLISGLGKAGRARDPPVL
The description is as above. Particulars: tags: N-terminal SBP, C-terminal His6, kept; label: biotin.

The target of data set [3] is T3, PPR2.0 t19 (synthetic).
T3 chain: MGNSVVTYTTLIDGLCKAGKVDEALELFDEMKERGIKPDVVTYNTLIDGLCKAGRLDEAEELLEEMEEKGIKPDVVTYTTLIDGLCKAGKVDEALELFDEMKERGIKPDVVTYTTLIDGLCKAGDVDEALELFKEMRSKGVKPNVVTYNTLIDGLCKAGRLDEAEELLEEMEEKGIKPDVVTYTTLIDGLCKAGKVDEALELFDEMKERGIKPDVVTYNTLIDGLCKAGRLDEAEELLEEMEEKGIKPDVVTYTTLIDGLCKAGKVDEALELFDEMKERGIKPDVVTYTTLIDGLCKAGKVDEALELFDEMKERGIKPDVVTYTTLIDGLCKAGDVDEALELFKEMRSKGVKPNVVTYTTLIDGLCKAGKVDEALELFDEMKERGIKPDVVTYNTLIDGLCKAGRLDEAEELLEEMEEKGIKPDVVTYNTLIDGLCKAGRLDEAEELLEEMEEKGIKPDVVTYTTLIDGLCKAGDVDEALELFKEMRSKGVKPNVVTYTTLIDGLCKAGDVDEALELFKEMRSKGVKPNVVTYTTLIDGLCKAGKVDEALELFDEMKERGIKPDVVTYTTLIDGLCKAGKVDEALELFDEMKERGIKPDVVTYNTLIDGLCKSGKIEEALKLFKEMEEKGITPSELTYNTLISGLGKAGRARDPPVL
The experiment in a line: 20 mM Tris-HCl pH 8.0, 150 mM NaCl, 0.5% NP-40, 1 mM DTT. Particulars: tags: N-terminal NanoLuc, C-terminal His6, kept; label: biotin.

Data set [4] deals with T3, PPR2.0 t19. The experiment in a line: EMSA; 20 mM Tris-HCl pH 8.0, 150 mM NaCl, 0.5% NP-40, 1 mM DTT, 1 mM EDTA; 20 nM RNA. Particulars: tags: N-terminal SBP, C-terminal His6, kept; label: biotin.
Data set [5] has as its target T4, PPR2.0 t3 (synthetic).
T4 chain: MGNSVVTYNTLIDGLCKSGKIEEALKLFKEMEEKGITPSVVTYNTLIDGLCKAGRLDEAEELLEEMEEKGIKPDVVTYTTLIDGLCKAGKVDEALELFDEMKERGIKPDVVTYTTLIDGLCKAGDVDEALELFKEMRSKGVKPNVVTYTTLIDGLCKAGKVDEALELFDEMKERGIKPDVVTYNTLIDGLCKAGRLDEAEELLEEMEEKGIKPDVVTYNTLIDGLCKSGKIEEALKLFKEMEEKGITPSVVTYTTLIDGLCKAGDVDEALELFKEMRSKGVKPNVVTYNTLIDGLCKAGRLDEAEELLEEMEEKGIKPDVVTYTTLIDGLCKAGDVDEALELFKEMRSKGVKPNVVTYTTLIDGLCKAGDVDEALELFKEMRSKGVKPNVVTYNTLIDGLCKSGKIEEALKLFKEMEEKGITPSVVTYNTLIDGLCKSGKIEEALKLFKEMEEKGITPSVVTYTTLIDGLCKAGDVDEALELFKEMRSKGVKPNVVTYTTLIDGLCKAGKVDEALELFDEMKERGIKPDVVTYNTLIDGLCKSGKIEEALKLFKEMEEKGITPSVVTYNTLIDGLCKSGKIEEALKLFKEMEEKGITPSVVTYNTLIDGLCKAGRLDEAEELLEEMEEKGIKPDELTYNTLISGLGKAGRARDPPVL
The experiment in a line: 20 mM Tris-HCl pH 8.0, 150 mM NaCl, 0.5% NP-40, 1 mM DTT. The following applies: tags: N-terminal NanoLuc, C-terminal His6, kept; label: biotin.

Data set [6] has as its target T4, PPR2.0 t3. The experiment in a line: EMSA; 20 mM Tris-HCl pH 8.0, 150 mM NaCl, 0.5% NP-40, 1 mM DTT, 1 mM EDTA; 20 nM RNA. Particulars: tags: N-terminal SBP, C-terminal His6, kept; label: biotin.
The target in data set [7] is T5, PPR2.0 t2 (synthetic).
T5 chain: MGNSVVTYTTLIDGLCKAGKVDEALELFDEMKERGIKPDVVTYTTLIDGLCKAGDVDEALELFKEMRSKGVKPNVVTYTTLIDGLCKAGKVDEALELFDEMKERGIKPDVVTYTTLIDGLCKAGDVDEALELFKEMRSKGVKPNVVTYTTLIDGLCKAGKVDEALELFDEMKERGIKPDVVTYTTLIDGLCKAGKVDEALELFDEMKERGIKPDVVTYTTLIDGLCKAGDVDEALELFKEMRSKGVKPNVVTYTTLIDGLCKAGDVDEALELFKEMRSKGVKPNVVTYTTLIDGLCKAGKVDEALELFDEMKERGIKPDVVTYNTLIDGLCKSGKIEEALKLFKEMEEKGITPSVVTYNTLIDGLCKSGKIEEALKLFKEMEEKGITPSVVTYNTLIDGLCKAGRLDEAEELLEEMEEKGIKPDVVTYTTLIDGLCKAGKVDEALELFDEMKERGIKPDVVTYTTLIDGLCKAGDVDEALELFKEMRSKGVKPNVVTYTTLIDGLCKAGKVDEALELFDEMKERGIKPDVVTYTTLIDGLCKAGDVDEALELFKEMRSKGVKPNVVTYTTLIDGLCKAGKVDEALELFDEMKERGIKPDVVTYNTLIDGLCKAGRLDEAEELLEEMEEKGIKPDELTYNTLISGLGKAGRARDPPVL
The experiment in a line: 20 mM Tris-HCl pH 8.0, 150 mM NaCl, 0.5% NP-40, 1 mM DTT. Particulars: tags: N-terminal NanoLuc, C-terminal His6, kept; label: biotin.

Data set [8] concerns the target T5, PPR2.0 t2. The experiment in a line: EMSA; 20 mM Tris-HCl pH 8.0, 150 mM NaCl, 0.5% NP-40, 1 mM DTT, 1 mM EDTA; 20 nM RNA. Particulars: tags: N-terminal SBP, C-terminal His6, kept; label: biotin.
The target in data set [9] is T6, PPR2.0 t23 (synthetic).
T6 chain: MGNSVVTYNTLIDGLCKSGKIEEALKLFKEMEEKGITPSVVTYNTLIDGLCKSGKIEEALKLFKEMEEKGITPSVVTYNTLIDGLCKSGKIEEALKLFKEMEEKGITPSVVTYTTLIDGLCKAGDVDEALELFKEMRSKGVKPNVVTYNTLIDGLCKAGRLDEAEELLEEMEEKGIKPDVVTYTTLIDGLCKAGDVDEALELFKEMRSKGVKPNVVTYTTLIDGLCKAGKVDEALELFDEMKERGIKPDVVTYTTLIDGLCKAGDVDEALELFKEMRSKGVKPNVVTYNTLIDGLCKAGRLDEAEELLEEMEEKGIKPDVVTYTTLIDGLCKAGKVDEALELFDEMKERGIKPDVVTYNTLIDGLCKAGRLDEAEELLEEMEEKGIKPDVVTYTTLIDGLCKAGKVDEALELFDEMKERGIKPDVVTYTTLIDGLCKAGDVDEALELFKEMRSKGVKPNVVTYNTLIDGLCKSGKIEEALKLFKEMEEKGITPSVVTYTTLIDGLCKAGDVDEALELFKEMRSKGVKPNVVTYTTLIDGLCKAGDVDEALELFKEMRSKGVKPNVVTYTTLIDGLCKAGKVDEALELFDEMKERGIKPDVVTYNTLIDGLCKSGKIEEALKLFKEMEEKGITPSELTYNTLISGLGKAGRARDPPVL
The experiment in a line: 20 mM Tris-HCl pH 8.0, 150 mM NaCl, 0.5% NP-40, 1 mM DTT. Particulars: tags: N-terminal NanoLuc, C-terminal His6, kept; label: biotin.

For data set [10], the target named is T6, PPR2.0 t23. The experiment in a line: EMSA; 20 mM Tris-HCl pH 8.0, 150 mM NaCl, 0.5% NP-40, 1 mM DTT, 1 mM EDTA; 20 nM RNA. Particulars: tags: N-terminal SBP, C-terminal His6, kept; label: biotin.
The target in the next data set is MS2 protein (UniProt P03612 2-130). The experiment in a line: RBP-ELISA; purified and lysate, dose-dependent; EMSA: 20 mM Tris-HCl pH 8.0, 150 mM NaCl, 0.5% NP-40, 1 mM DTT, 1 mM EDTA, 0.2 pmol biotin-RNA in 10 uL, 6% PAGE in 0.5x TBE; temperature not stated; RBP-ELISA. The following applies: protein: recombinant; tags: 6xHis; Nano-luc; chain copies: 2; label: 5'-biotin; hairpin.
Sequence of MS2 protein (P03612 2-130): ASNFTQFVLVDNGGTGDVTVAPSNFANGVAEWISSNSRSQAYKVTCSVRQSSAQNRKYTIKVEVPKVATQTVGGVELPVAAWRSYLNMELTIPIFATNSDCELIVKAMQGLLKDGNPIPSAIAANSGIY

B1: Probe_t1 (ssRNA)
RNA: GACAUGCGAAUGAACUCUUCCGGGAGACUG
As to B1, in the data set with PPR2.0 t1 [1], the binding signal is 6.64e+07 RBP-ELISA luminescence, CPS. This molecule also had a Kd with PPR2.0 t1 [2] of 3.45 nM.

B2: Probe_t24 (ssRNA)
RNA: GACAUGCGGCGGGGCACUGUGCGUGGACUG
In the case of B2, binding in the data set with PPR2.0 t24 was characterised by a dissociation constant (Kd) of 11 nM.

B3: Probe_t19 (ssRNA)
RNA: GACAUGCGUGAUGUGGAGUUAAGGCGACUG
With B3, in the data set with PPR2.0 t19 [3], the binding signal is 1.19e+07 RBP-ELISA luminescence, CPS. The molecule further registered a Kd with PPR2.0 t19 [4] of 173 nM.

B4: Probe_t3 (ssRNA)
RNA: GACAUGCCUGAGUCAUAACCAGCCUGACUG
As to B4, the binding signal in the data set with PPR2.0 t3 [5] is 3.35e+07 RBP-ELISA luminescence, CPS. The same molecule gave an equilibrium dissociation constant (Kd) with PPR2.0 t3 [6] of 59.2 nM.

B5: Probe_t2 (ssRNA)
RNA: GACAUGCGAGAGGAAGCCUGAGAGUGACUG
In the case of B5, the binding signal with PPR2.0 t2 [7] was 5.68e+07 RBP-ELISA luminescence, CPS. For the same molecule, the Kd in the data set with PPR2.0 t2 [8] came to 4 nM.

B6: Probe_t23 (ssRNA)
RNA: GACAUGCCCCAUAGAUGUGACAAGCGACUG
With B6, the binding signal with PPR2.0 t23 [9] is 3.27e+07 RBP-ELISA luminescence, CPS. The molecule also returned a Kd in the data set with PPR2.0 t23 [10] of 10.4 nM.

B7: Probe_MS2 (structured_RNA)
RNA: AGAAAACAUGAGGAUCACCCAUGUCUGCAG
B7: in the data set with MS2 protein, the binding result is listed as “binds”.

For orientation: Kd means the equilibrium constant for the complex coming apart.

These data come from publication PMC9688318, “Construction of a Versatile, Programmable RNA-Binding Protein Using Designer PPR Proteins and Its Application for Splicing Control in Mammalian Cells”.
